Values belong to the binder of their own block, whether it stands above or below them. Where no end group is shown, it is not given here. [ ]: non-standard residue; d: D form. pS = N[C@@H](COP(=O)(O)O)C(=O)O
Experiments:
[1] = molecular target: endogenous BRCA1 from 293T cell nuclear extracts (UniProt P38398 1-1863, limits assumed); test: peptide pull-down from 293T nuclear extracts (FIG. 4I)
[2] = molecular target: T1, GST-tagged N-motif (1-205) of the WSTF kinase domain (human, UniProt Q9UIG0 1-205); test: co-expression in E. coli, amylose affinity purification against the MBP tag, Superdex 200 gel filtration
T1 construct: Made in E. coli; also called GST-tagged WAC N-; N-terminal motif; not shown: N-terminal GST tag of pGex6p
T1 sequence: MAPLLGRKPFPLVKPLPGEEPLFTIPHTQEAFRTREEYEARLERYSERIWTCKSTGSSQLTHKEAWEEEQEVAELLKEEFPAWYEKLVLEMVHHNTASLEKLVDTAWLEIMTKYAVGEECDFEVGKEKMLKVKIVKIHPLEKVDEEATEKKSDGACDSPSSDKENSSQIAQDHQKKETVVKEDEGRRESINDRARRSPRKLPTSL
Experimental: For co-expression of the N- and C-motifs of WSTF, the recombinant plasmid vectors carrying the N- and C-motif constructs (above) were transformed into E. coli host strain Rosetta2 (DE3) (Novagen) for protein expression under triple antibiotic selection (ampicillin, kanamycin, and chloramphenicol) in LB medium. After overnight induction by 0.4 mM isopropyl β-D-thiogalactoside at 25° C., cells were harvested in buffer 0.4 M KCl, 20 mM Tris, pH 7.5. Co-expressed proteins were affinity purified using Amylose resin (New England Biolabs, MA) against the MBP tag. Maltose-eluted samples were purified through a Superdex 200 column (GE Healthcare) in the elution buffer (50 mM KCL, 20 mM Tris, pH 7.5). Most proteins were eluted in a single peak that contains GST-tagged […] with a stoichiometry of 1:1.

endogenous BRCA1 from 293T cell nuclear extracts, sequence (P38398 whole entry, the tested form may be a part): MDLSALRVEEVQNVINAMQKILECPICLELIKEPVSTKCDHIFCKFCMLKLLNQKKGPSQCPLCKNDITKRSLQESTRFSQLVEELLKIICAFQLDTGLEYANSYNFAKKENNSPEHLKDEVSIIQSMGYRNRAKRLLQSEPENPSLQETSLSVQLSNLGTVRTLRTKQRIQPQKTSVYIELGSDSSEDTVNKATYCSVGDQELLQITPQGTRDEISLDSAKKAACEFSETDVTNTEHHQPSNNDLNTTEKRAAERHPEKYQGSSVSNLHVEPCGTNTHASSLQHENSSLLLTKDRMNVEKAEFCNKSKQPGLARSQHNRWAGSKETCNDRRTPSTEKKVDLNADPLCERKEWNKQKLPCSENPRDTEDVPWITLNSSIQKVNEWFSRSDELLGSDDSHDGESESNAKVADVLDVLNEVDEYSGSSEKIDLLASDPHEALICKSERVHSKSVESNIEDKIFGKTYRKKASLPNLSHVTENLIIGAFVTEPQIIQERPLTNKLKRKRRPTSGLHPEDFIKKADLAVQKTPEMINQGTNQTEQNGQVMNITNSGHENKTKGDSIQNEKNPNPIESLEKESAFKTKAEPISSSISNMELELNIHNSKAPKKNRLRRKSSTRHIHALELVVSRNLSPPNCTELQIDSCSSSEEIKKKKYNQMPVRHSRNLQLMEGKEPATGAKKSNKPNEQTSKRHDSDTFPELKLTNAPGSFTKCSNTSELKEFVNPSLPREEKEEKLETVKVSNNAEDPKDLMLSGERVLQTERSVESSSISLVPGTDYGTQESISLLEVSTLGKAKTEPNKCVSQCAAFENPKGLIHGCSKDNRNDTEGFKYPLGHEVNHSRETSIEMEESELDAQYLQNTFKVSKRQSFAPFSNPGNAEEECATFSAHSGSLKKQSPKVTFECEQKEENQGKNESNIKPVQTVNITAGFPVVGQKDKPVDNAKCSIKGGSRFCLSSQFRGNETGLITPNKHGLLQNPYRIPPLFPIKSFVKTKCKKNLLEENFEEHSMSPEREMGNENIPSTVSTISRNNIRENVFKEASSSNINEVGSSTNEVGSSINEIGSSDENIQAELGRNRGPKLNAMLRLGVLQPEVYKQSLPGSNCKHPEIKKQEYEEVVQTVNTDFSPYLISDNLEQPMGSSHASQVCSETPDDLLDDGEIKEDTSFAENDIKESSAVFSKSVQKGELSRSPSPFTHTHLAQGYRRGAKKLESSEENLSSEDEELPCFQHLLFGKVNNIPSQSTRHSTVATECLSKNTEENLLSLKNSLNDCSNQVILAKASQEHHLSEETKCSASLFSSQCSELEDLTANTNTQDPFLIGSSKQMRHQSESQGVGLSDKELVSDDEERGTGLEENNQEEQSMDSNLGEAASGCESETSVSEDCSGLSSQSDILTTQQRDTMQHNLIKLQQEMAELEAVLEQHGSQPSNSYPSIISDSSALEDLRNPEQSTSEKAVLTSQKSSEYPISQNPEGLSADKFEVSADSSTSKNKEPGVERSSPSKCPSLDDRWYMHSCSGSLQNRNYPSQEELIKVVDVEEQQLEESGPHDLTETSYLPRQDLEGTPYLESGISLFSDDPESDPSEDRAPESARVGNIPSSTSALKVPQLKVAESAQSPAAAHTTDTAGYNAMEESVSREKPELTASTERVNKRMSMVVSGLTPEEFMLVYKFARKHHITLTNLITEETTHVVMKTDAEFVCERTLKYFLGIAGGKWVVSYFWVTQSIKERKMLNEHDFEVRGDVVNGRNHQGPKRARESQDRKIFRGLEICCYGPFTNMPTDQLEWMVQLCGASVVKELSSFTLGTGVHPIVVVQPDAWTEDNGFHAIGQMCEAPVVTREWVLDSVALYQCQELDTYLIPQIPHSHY

- binding result [1]: no binding
B1: H2A.X peptide S139(ph), N-CPSGGKKATQApSQEY-C (peptide)
peptide: CPSGGKKATQA[pS]QEY
notes: Pull-down peptide; also called Ser139(ph) peptides; H2A.X peptides singly phosphorylated on Ser139

- binding result [2]: binds
B2: MBP-tagged C-motif (208-345) of the WSTF kinase domain (other)
chain: GERKWAPPKFLPHKYDVKLQNEDKIISNVPADSLIRTERPPNKEIVRYFIRHNALRAGTGENAPWVVEDELVKKYSLPSKFSDFLLDPYKYMTLNPSTKRKNTGSPDRKPSKKSKTDNSSLSSPLNPKLWCHVHLKKS
notes: Made in E. coli; also called MBP-tagged WAC C-motif; not shown: N-terminal MBP tag of a modified pRSFDuet-1

— patent US20100080799A1 (ROCKEFELLER UNIVERSITY, published 2010)
